Test results as given in US20110195027A1 (KOREA RESEARCH INSTITUTE OF BIOSCIENCE AND BIOTECHNOLOGY, published 2011).

Tests used:
[1] = molecular target: T1, CD9-ECL2(CD9 extracellular domain 2)-Fc antigen (human); test: phage ELISA; CD9 OD/a-myc OD (repeats Table 3)
T1 construct: also called CD9-ECL2-Fc; CD9-EC2-Fc
Procedure: (§1) A 96-well immuno-plate was coated with CD9-EC2-Fc antigen (0.1 μg/well) at 4° C. for 16 hours, followed by blocking with skim milk dissolved in PBS (4%). Each well of the 96-well immuno-plate was washed with 0.2 ml of PBS-tween20 (0.05%). 100 ul of the 3rd-4th panning monoclonal scFV-phage was added to each well, followed by reaction at room temperature for 2 hours. Each well was washed four times with 0.2 ml of PBS-tween20 (0.05%). The secondary antibody anti-M13-HRP was diluted at 1:2000, followed by reaction at room temperature for 1 hour. The plate was washed with 0.2 ml of PBS-tween20 (0.05%), followed by color development. OD₄₉₀ was measured.
Target sequence in this assay (chain, as listed by the source limits assumed): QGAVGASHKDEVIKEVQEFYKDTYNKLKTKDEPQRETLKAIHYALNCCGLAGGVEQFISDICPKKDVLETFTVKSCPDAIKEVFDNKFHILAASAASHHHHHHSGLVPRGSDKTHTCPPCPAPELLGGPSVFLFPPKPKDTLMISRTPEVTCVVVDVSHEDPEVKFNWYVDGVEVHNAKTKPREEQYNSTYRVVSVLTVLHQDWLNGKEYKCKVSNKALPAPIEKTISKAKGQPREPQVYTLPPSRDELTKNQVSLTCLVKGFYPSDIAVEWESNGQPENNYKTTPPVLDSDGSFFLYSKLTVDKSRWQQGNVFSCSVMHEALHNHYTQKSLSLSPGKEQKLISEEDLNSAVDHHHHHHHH

[2] = molecular target: T1, CD9-ECL2(CD9 extracellular domain 2)-Fc …; test: phage ELISA; CD9 OD/a-myc OD
Procedure: as §1
Target sequence in this assay (chain, as listed by the source limits assumed): as above

Fc = molecular target: T2, Fc; test: phage ELISA
T2 construct: Control antigen of the phage ELISA
Procedure: as §1

[3] = molecular target: T1, CD9-ECL2(CD9 extracellular domain 2)-Fc …; test: phage ELISA
Procedure: as §1
Target sequence in this assay (chain, as listed by the source limits assumed): as above

[4] = molecular target: T1, CD9-ECL2(CD9 extracellular domain 2)-Fc …; test: phage ELISA; CD9 OD/a-myc OD; remark: listed apart in the source
[5] = molecular target: T1, CD9-ECL2(CD9 extracellular domain 2)-Fc …; test: phage ELISA; CD9 OD/a-myc OD (repeats Table 2)
CD9-ECL2 mutant M4 = molecular target: T3, CD9-ECL2 mutant M4 (human, with rat residues, UniProt P21926 112-195); test: ELISA: antibody coated, supernatant, anti-His-HRP
T3 construct: also called mutation 4; not shown: Myc and 8x His tag of the pYK His only vector
T3 chain: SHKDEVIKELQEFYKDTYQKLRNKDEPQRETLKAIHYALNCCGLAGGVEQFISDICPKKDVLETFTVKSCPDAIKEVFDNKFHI
Procedure: (§2) Each supernatant was loaded by 24 ul at 100 V for 2 hours, and then transferred to NC membrane (Millipore Cat. No. HATF00010) at 85V for 2 hours. The membrane finished with transfer was blocked by using blocking buffer (4% skim milk in TEST) at room temperature for 1 hour. A-His-HRP (Sigma, Cat. No. A7058) was diluted with blocking buffer (4% skim milk in TBST) at 1:4000 and binding was induced at room temperature for 1 hour. The membrane was washed with TBST 5 times every 10 minutes, followed by development (Intron, Cat. No. 12145). Expression of each mutant was confirmed by Western blotting (FIG. 15). Based on that, epitopes of ALB6 and 10E4 were confirmed by ELISA. A 96-well immuno-plate (NUNC) was coated with coating buffer comprising ALB6 and 10E4 (100 ng/100 ul/well each) at 4° C. for 16 hours, followed by blocking with 4% PBST (skim milk dissolved in 1× PBS) for 2 hours. Each well of the 96-well immuno-plate was washed three times with 0.2 ml of PBST (PBS-tween20 (0.05%)). From the supernatants obtained on day 5 confirmed to contain a large number of mutants confirmed by Western blotting, wild type, M1 and M4 supernatants were selected. 100 ul of the selected supernatant was added to each well of the plate, followed by reaction for 2 hours. The plate was washed again. The secondary antibody anti-His-HRP (Sigma A7058) was diluted at 1:1000, followed by reaction at room temperature for 30 minutes. Washing was performed three times by the same manner as described above. OPD tablet (Sigma 8787-TAB) was added to PC buffer [C₆H₈O₇H₂O (Sigma, C0706) 5.1 g, Na₂HPO₄ (Sigma, 57907 7.3 g)] to make substrate solution, which was added to each well by 100 ul/well, followed by color development for 10 minutes. Color development was terminated by adding 2 M H₂SO₄ solution. Then, OD₄₉₀ was measured by using ELISA reader (Molecular Device).

CD9-ECL2 mutant M1 = molecular target: T4, CD9-ECL2 mutant M1 (human, with rat residues, UniProt P21926 112-195); test: ELISA: antibody coated, supernatant, anti-His-HRP
T4 construct: also called mutation 1; not shown: Myc and 8x His tag of the pYK His only vector
T4 chain: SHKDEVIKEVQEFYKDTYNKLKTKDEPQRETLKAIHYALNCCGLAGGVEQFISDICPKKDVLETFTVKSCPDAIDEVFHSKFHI
Procedure: as §2

[6] = molecular target: T5, p-Myc-His CD9-ECL2 wild type (human); test: ELISA: antibody coated, supernatant, anti-His-HRP
T5 chain: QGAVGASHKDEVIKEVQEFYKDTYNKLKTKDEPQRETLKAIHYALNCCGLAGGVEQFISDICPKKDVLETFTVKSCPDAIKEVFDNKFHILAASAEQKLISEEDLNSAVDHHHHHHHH
Procedure: as §2

Row | Binder | Ratio [1] | Ratio [2] | OD490 (Fc) | OD490 [3] | Ratio [4] | Ratio [5] | OD490 (CD9-ECL2 mutant M4) | OD490 (CD9-ECL2 mutant M1) | OD490 [6]
1 | CD9 8A scFv monoclonal phage antibody (scFv, V domains shown, also called 8A3) VH: QVQLVQSGAEVKKPGASVKLSCKASGYTFSSYWMHWVRQAPGQRLEWMGEINPGNGHTNYNEKFKSRVTITVGKSASTAYMELSSLRSEDTAVYYCAREGVSAAGGLDHWGQGTQITVSS VL: DIQMTQSPSSLSVSTGARVTITCRASQGISNYLAWYQQKPGKAPKLLIYAASTLQSGVPSRFSGSGSGTDFTLTISSLQPEDFATYYCQQLNSYPLTFGGGTKVEIK | 0.73 | 0.73 | 0.088 | 1.61 |  |  |  |  | 
2 | CD9 12F scFv monoclonal phage antibody (scFv, V domains shown, also called 12F3) VH: QVQLVQSGAEVKKPGASVKLSCKASGYTFSSYWMHWVRQAPGQRLEWMGEINPGNGHTNYNEKFKSRVTITVDKSASTAYMELSSLRSEDTAVYYCARELEEGAFDIWGQGTMVTVSS VL: DIQMTQSPSSLPASVGDRVTITCRASQGISSYLAWYQQKPGKAPKLLIYAASTLQSGVPSRFSGSGSGTDFTLTISSLQPEDFATYYCQQYDSVPLTFGGGTKVEIK | 0.668 | 0.669 | 0.124 | 1.16 |  |  |  |  | 
3 | CD9 3F3 scFv monoclonal phage antibody (scFv, V domains shown, not shown: small tags and cut ends) VH: QMQLVQSGAEVKKPGASVKLSCKASGYTFSSYWMHWVRQAPGQRLEWMGEINPGNGHTNYNEKFKSRVTITVDKSASTAYMELSSLRSEDTAVYYCGQDNSPPRIWGQGTLITVSS VL: QSALTQPASVSGSPGQSITISCTGTSSDVGGYNHVSWYQQHPGKAPKLLIYDVSNRPSGVSGRFSGSKSGNTASLTISGLQAEDEANYYCGSYTSSSTFEVFGTGTKVTVL | 0.918 | 0.918 | 0.0394 | 0.961 |  |  |  |  | 
4 | CD9 11G scFv monoclonal phage antibody (scFv, V domains shown, also called 11G3) VH: QVQLVQSGAEVKKPGASVKLSCKASGYTSSSYWMHWVRQAPGQRLEWMGEINPGNGHTNYNEKFKSRVTITVDKSASTAYMELSSLRSEDTAVYYCGQDNSPPRIWGQGTLVTVSS VL: DIQMTQSPSTLSASVGDRVTITCRASQTIGNLAWFQQKPGKAPKLLIYKASSLESGVPSRFSGSGSGTEFTLTISSLQPDDFATYYCQQYSDYWTFGQGTKVEIK | 1.23 | 1.23 | 0.0441 | 2.24 |  |  |  |  | 
5 | CD9 5G4 scFv monoclonal phage antibody (scFv, V domains shown) VH: QVQLVSSGAEVKKPGASVKLSCKASGYTFSSYWMHWVRQAPGQRLEWMGEINPGNGHTNYNEKFKSRVTITVDKSASTAYMELSSLRSEDTAVYYCAREDDIEDAFDFWGQGTMVTVSS VL: DIQMTQSPSSVSASVGDRVTITCRASQSISSWLAWYQQKPGKAPKLLIYGASNLQSGVPSRFSGSGSGTDFTLTISSLHPEDFATYFCHKTDSFPLTFGGGTKVEIK |  |  |  |  | 1.04 | 1.04 |  |  | 
6 | 10E4 whole IgG (antibody, V domains shown, Whole IgG made from the 10E4 phage clone in pNATAB H and pNATAB L vectors; the heavy chain PCR primer starts at QVQLVQS; also called 10E4 human antibody; anti-CD9(10E4) IgG) VH: MAQVQLVQSGGGLVQPGRSLRLSCAASGFTFDDFAMHWVRQAPGKGLEWVAGISWNSGDIRYADSVRGRFTISRDNAKNSLFLQMNSLRAEDTAVYYCARSPVGTTYFDYWGQGALITVSS VL: DIQMTQSPSSLSASVGDRVTITCRASQGISSYLAWYQQKPGKAPKLLIYAASTLQSEVPSRFSGSGSGTDFTLTISSLQPEDFATYYCQQLNIFPLTFGGTKVDIKR |  |  |  |  |  |  | 0.398 | 0.084 | 0.375
